Measured values: US9631180B2, “Recombinant manganese oxidase” (OREGON HEALTH & SCIENCE UNIVERSITY, priority 2013, dated 2017)

How the values were obtained:
[1] = substrate: CCn1c(=NN=c2sc3cc(S(=O)(=O)O)ccc3n2CC)sc2cc(S(=O)(=O)O)ccc21; assay: purified protein, by the assay type; format: biochemical, Bacillus sp. PL-12; conditions: other: ABTS, 22° C., 420 nm
Description: (§1) FIG. 8B is a plot showing the initial oxidation velocity of DMP plotted against initial substrate concentration in a reaction catalyzed by the recombinant Mn oxidase complex. […]
(§2) All plots in FIGS. 8A, 8B, and 8C were fitted with either Michaelis-Menten or allosteric sigmoidal functions as appropriate.
(§3) Kinetic experiments were performed on the Molecular Devices SpectraMax® M2 microplate reader spectrophotometer at 22° C. with purified protein. […] Reactions were carried out with 10 μg Mnx (final 240 nM) 100 mM in phosphate-citrate buffer pH 3-8 and 20 mM CHES, HEPES, and MES at pH 7-10. […] These assays were performed in at least two independent trials in triplicate. Fe(II) (ferrous ammonium sulfate) oxidation was measured by quenching 200 μl reactions with 50 μl of the Fe(II) chelating colorimetric assay FerroZine® (15 mM) and a ferrous ammonium sulfate standard curve, noting the absorbance at 570 nm. Fe(II) oxidation reactions were performed with 10 μg recombinant Mn oxidase complex in 100 mM Na acetate-acetic acid buffer (pH 4-5.5). Mn(II) (MnCl2) oxidation in 20 mM HEPES (pH 7-8.5) was measured by quenching 5 μl of 200 μl reactions with 195 μl leucoberbelin blue (LBB) colorimetric reagent and reading the absorbance at 618 nm. Working LBB reagent was prepared by diluting concentrated stock (100 mg LBB in 25 ml 0.4% NaOH) 1:10 into 1% acetic acid. A KMnO4 standard curve was used to determine MnO2 oxide equivalent concentration. The metal substrate assays were performed in five independent trials then the high and low values were discarded from each concentration. The linear part of each curve was fit plotted and fit with a linear regression in GraphPad Prism®. These slopes were converted to the appropriate kinetic units, plotted, and fit with nonlinear regressions determined by comparing best fit values in the same software. KM and Vmax were determined and reported as KM and kcat=Vmax/[enzyme].

[2] = substrate: COc1cccc(OC)c1O; assay: purified protein, by the assay type; format: biochemical, Bacillus sp. PL-12; conditions: other: 2,6-DMP, pH 8, HEPES, 22° C., 468 nm, Michaelis-Menten, pH 8.0
Description: as §1, §2, §3

[3] = literature values for Fet3p ferroxidases, cited from earlier work; for Km: read-out: Fe(II) KM
[4] = pH 4.5, phosphate-citrate buffer, Michaelis-Menten, pH 4.5
[5] = pH 8, HEPES, allosteric sigmoidal function, pH 8.0

B1: recombinant Bacillus sp. PL-12 Mn oxidase complex (Mnx; MnxE3F3G), MnxG (SEQ ID NO: 7), MnxE (SEQ ID NO: 5) and MnxF (SEQ ID NO: 6) (Bacillus sp. PL-12) (protein)
chain: MLRKFHVVGISTRIVVNTFGDHNPNGRIYVLKENESKLKDLVRKNPYKPIDLVQPLAIRANEGDIVEILFENQLSFSAGMHFQEADYSVLSSDGADAGYNPDTTVEPGGEILYRLNVNQEGICFFTDLGNVSSTEQGSSVQGLFGALLVQKRGSSWTDPVTGGPINSGVYADIHHPFLPSFREYAWFFNDEMEIRDLTGERPLNPMTNQEAESFHGVNLRYEPMTNRKRLMEAGVVCPDCDSEEVHHDSWVFGDPATPILRGYVGDPAVIRLIHGGVKETHVFHYHVHQWLGDSSNINAEILDAQSISPQTHYSIQPLYGLGSLHGAIGDSIIHCHLYPHFGIGMWGMNRVFDTLQDGSQCYPNGVRIKALMPLPDRPEPPKPTPEKPGFPNFIPGKVGYKAPRPPLGIVGGREMTELERNAAIENPRPGAVFVDPCLDQDPVVVEFNVSAIEMPVVYNKQGWHDPKARFYVMDEDLDDILSGKKEPEPLVFHVPAGTCIRMNYTNRMPHILDGDAFQLVTRTYENGFHIHFVKFDVLACDGGNVGWNYDSAVLPGQTIRYEWYAETELKAFFFHDHLFANSHQQHGVFGAGVIQPRFSKFLDSRTGDEVDHGTQISVEHPLIPDYRDQTLFVHDFALLFDKNGRPIQPPEYPGSEDDPGVFGVNFKCEPLKFRLGEDCDPAYSFSSYVHGDPVTPILRAYEGDPIRIRLLQGAHEESHSFNIHGLRWKEERPDLGSSMKAQQHIGISESFTFETEIPASGDYLWAFEDEEDVWLGTWGLIRAYKGRMEDLIVLTDREALPEGSAETPKPTGKPPEKANPLASLPPGAYQGSPVKKFEVVAFQTPIQYNSYGDHDPYGIIFALKEDVEDILTGKKNPVPLILRANVGDLVEVTLTSELKKELFPFQDGIHPYPPVKEQSFYPPSLRISLHTSLLNYDVKTSSGDTVGYNPDQTVGPGETITYRWFVDGQFGMCSMWDMADLRNHRSFGTFGAFVAESRFTTYLDPYSLEKAITGENVILRHPLLPATREFVLILHDGVRLEDKDGKVIIDPMDGVVPDTEELEEVDTYDYGSRGFNYRSERLINRYKEHPVMHELFSSEVFGDPATPLFEAYPGEPVVMRITTPAERRRAHTFHLHGHYWKFDSKDLDSRIQSFLGHMVTGHTDDLRLIGGAGGVFNFPGDYLYRSGNIRWDIELGMWGIFRVHKDSKENLPRLEEVEGGWDNEEKA
notes: Cu-loaded; purified ~230 kDa complex of MnxG, MnxE and MnxF; MnxD not found by MS
- Km [1, 4]: 456 ± 23.3 µM
- kcat [1, 4]: 0.206 ± 0.0136 s⁻¹
- Km [1, 5]: 3126 ± 391 µM
- kcat [1, 5]: 0.0595 ± 0.00891 s⁻¹
- Km [2]: 576 ± 163 µM

B2: Fet3p C. albicans: ferroxidase Fet3p from Candida albicans, described in Ziegler et al 2011 (protein, UniProt P78591 21-624, looked up)
Iron transport multicopper …: AETHTWYFKTGWVDANPDGVYPRKMIGFNDSWPLPTLRVKKGDRVQLYLINGFDNLNTTLHFHGLFVRGANQMDGPEMVTQCPIPPGETYLYNFTVTDQVGTYWYHSHTGGQYGDGMRGVFIIEDDDFPYHYDEEVVLTLSDHYHKYSGDIGPAFLTRFNPTGAEPIPQNFLFNETRNATWKVEPGKTYFVRILNVGGFVSQYLWMEDHEFTIVEIDGVYVEKNTTDLIYITVAQRYGVLITTKNSTDKNYVFMNGVDTTMLDSVPADLQVNGTNYIVYNESSALPDAYDIDSYDDALDDFYLKPLSKQKLMDDADYTITVDVQMNVLNDGINYAFFNNISYKAPKVPTLLTVLSAGEAATNELIYGTNTNSFVLQGGDIVDIVLNNFDTGKHPFHLHGHVFQLIERHEAIGSKESAVTFNVSDHAEWPEYPMIRDTVYVKPHSYMVLRFKADNPVVWFFHCHVDWHLEQGLAVVLIEDPQAIQKNEKITENHKRICEKVGVPWEGNAAANSNDYLDLKGENVQVKRLPTGFTTKGIVALVFSCVAAFLGLFSFSFYGMNDIAHVEDKVARDLDIDLEAENEDEEEAVVLNQNSSSSDSNSKPH
- Fe(II) kcat [3]: 1.06 ± 0.02 s⁻¹
- Km [3]: 7.9 ± 0.5 µM

B3: Fet3p S. cerevisiae: ferroxidase Fet3p from Saccharomyces cerevisiae, described in Stoj et al 2006 (protein, UniProt P38993 22-636, looked up)
Iron transport multicopper …: ETHTFNWTTGWDYRNVDGLKSRPVITCNGQFPWPDITVNKGDRVQIYLTNGMNNTNTSMHFHGLFQNGTASMDGVPFLTQCPIAPGSTMLYNFTVDYNVGTYWYHSHTDGQYEDGMKGLFIIKDDSFPYDYDEELSLSLSEWYHDLVTDLTKSFMSVYNPTGAEPIPQNLIVNNTMNLTWEVQPDTTYLLRIVNVGGFVSQYFWIEDHEMTVVEIDGITTEKNVTDMLYITVAQRYTVLVHTKNDTDKNFAIMQKFDDTMLDVIPSDLQLNATSYMVYNKTAALPTQNYVDSIDNFLDDFYLQPYEKEAIYGEPDHVITVDVVMDNLKNGVNYAFFNNITYTAPKVPTLMTVLSSGDQANNSEIYGSNTHTFILEKDEIVEIVLNNQDTGTHPFHLHGHAFQTIQRDRTYDDALGEVPHSFDPDNHPAFPEYPMRRDTLYVRPQSNFVIRFKADNPGVWFFHCHIEWHLLQGLGLVLVEDPFGIQDAHSQQLSENHLEVCQSCSVATEGNAAANTLDLTDLTGENVQHAFIPTGFTKKGIIAMTFSCFAGILGIITIAIYGMMDMEDATEKVIRDLHVDPEVLLNEVDENEERQVNEDRHSTEKHQFLTKAKRFF
- Fe(II) kcat [3]: 0.835 ± 0.023 s⁻¹
- Km [3]: 4.9 ± 0.8 µM
